According to publication PMC4730555:

Assays:
[1] = biological target: ectodomain of RGMB (eRGMB), wild type (human) (UniProt Q6NW40); experiment: AUC
[2] = biological target: ectodomain of RGMB (eRGMB), wild type (human) (UniProt Q6NW40); experiment: multiangle light scattering
eRGMB-P206N (human) = eRGMB-P206N (human) (UniProt Q6NW40); experiment: AUC
[3] = biological target: ectodomain of RGMB (eRGMB), wild type (human) (UniProt Q6NW40); experiment: AUC; remark: listed apart in the source
[4] = biological target: RGMC, full-length ectodomain (human) (UniProt Q6ZVN8); experiment: SPR
Sequence of UniProt Q6ZVN8 (Q6ZVN8 36-400): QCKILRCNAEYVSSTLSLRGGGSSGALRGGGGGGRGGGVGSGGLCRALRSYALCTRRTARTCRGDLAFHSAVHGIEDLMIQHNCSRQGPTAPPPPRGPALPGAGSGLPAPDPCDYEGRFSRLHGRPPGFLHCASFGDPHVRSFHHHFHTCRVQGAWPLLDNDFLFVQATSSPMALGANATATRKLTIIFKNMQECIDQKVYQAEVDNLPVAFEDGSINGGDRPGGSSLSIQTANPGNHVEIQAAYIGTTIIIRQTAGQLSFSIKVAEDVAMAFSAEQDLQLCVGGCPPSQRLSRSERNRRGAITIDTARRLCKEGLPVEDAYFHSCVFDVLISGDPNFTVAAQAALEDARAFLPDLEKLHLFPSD

[5] = biological target: RGMA, full-length ectodomain (human) (UniProt Q96B86); experiment: SPR
Sequence of UniProt Q96B86 (Q96B86 48-424): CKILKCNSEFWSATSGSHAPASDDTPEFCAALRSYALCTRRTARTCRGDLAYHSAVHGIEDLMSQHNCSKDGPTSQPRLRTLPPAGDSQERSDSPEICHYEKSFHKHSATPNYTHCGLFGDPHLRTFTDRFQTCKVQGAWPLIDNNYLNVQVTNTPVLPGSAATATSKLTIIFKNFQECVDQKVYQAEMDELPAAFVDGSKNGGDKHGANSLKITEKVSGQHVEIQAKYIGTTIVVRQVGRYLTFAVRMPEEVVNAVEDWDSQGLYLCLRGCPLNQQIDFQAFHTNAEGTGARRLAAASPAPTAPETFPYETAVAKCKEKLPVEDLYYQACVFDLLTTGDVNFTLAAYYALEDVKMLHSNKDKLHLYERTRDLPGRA

[6] = biological target: ectodomain of RGMB (eRGMB), wild type (human) (UniProt Q6NW40); experiment: SPR

stoichiometry N [1] | stoichiometry N [2] | stoichiometry N (eRGMB-P206N (human)) | stoichiometry N [3] | interaction relative to the equivalent NEO1 construct [4] [fold] | interaction relative to the equivalent NEO1 construct [5] [fold] | interaction relative to the equivalent NEO1 construct [6] [fold] | Substance
1 | 1 | 1 | 1 | – | – | – | NEO1_FN56M (from UniProt P97798 883-1136) (domain or fragment)
– | – | – | – | 0.001 | 0.001 | 0.001 | full-length DCC ectodomain (from UniProt P43146 26-1097) (domain or fragment)
